Common to all, as to assay: BLI
Background: Biolayer interferometry detects binding as a change in optical thickness at a sensor tip.

The target of assay [1] is biotinylated human FcγRIIa-131H extracellular domain with AviTag (human) (UniProt P12318).
Assay [2] deals with biotinylated human FcγRIIa-131R extracellular domain with AviTag (human) (UniProt P12318).
Assay [3] concerns the target biotinylated human FcγRIIb extracellular domain with AviTag (human) (UniProt P31994).
The target of assay [4] is biotinylated human FcγRIIIa-176V extracellular domain with AviTag (human) (UniProt P08637).
Sequence of UniProt P08637 (P08637 17-208 F176V): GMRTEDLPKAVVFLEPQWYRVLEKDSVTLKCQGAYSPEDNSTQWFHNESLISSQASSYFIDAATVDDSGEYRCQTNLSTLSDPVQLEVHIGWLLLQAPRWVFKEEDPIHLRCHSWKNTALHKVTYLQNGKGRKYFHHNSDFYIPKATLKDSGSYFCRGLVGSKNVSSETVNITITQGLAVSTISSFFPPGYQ

Sequence of UniProt P31994 (P31994 43-217): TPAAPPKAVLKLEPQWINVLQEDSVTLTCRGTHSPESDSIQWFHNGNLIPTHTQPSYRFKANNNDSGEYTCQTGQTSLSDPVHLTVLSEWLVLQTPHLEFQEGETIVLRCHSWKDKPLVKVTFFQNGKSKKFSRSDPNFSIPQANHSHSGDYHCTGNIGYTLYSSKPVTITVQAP

As for “human IgG1 trastuzumab with Fc mutation G236A (antibody)”, the dissociation constant (Kd) (as a rule, a measure of binding affinity in units of concentration) was 120 nM in assay [1] and 210 nM in assay [2].

In turn, “human IgG1 trastuzumab with Fc mutation P238D (antibody)” had a Kd in assay [3] of 310 nM.

For the substance “human IgG1 trastuzumab, wild-type Fc (antibody)”, the Kd is 610 nM in assay [4], 290 nM in assay [1], 610 nM in assay [2] and 360 nM in assay [3].

The values are drawn from publication PMC10922510.
